Test results reported in patent publication US20020192640A1 (Boehringer Ingelheim, published 2002).

Target: T1, 4K-6H-NS2/3 (904-1206)st-4K (Hepatitis C virus genotype 1b)
T1 chain: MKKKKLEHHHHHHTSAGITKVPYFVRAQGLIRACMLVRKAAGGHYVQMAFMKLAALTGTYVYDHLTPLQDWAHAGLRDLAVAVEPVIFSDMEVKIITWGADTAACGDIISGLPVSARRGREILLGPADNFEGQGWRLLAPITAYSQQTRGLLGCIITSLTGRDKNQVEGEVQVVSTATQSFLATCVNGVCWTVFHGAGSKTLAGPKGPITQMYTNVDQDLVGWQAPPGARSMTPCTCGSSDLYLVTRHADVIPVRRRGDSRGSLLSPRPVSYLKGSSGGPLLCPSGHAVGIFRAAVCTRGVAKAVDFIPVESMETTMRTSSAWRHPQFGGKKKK
Assay: cell-based or functional assay

| Binder | IC50, inhibition of NS2/3 autocleavage [µM] |
| --- | --- |
| APITAY [Peptide 5, APITAY] | 1000 |
| KGWRLLAPITAY [Peptide 4, KGWRLL-APITAY] | 630 |
| SFEGQGWRLLAPITAYSQQT [Peptide 1, SFEGQGWRLL-APITAYSQQT] | 270 |
| APITAYSQQT [Peptide 3, APITAYSQQT] | > 1000 |
| SFEGQGWRLL [Peptide 2, SFEGQGWRLL] | 90 |
